Substrate in data set [1]: Nc1ccn([C@@H]2O[C@H](CO)[C@@H](O)C2(F)F)c(=O)n1
In words: HPLC deamination assay, non-linear regression. The class given is biochemical, Homo sapiens. Particulars: PBS, 37 °C, 10 min, 11 nM enzyme.

Substrate in data set [2]: Nc1ccn([C@H]2C[C@H](O)[C@@H](CO)O2)c(=O)n1
As to the kind of experiment: HPLC deamination assay, non-linear regression. Particulars: PBS, 37 °C, 10 min, 11 nM enzyme. The class given is biochemical, Homo sapiens.

Drawing on article PMC4541722, this text covers Km, kcat and kcat/Km for one protein.

B1: CDAHuman (Homo sapiens) (protein)
chain: MAQKRPACTLKPECVQQLLVCSQEAKKSAYCPYSHFPVGAALLTQEGRIFKGCNIENACYPLGICAERTAIQKAVSEGYKDFRAIAIASDMQDDFISPCGACRQVMREFGTNWPVYMTKPDGTYIVMTVQELLPSSFGPEDLQKTQ
As to B1, in data set [1], the Km (in general, the substrate concentration at which the rate is half of its maximum) was determined as 3080 ± 598 µM; the catalytic constant (kcat) (commonly the number of substrate molecules converted per active site and unit of time at saturation) was determined as 14 ± 0.91 s⁻¹; the kcat/Km (as a rule, the turnover number divided by the Michaelis constant) was 4000 M⁻¹ s⁻¹. Also, in data set [2], the Km came out at 373 ± 138 µM, the catalytic constant (kcat) was determined as 7.8 ± 0.64 s⁻¹ and the kcat/Km amounted to 21000 M⁻¹ s⁻¹.
